From IntAct's records for PubMed 12700764

Biological target: mef2b_human MEF2B (UniProt Q02080)
Sequence (Q02080 whole entry): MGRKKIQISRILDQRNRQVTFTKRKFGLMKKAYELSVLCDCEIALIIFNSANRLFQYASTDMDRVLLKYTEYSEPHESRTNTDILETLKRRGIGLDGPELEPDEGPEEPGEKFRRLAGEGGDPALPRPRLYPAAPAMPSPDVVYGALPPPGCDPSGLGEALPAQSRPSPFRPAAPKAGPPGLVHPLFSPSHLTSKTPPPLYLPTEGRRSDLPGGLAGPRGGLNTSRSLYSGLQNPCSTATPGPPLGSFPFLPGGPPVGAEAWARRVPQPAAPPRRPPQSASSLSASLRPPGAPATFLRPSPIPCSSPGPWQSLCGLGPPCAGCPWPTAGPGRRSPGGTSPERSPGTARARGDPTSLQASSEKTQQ

| effect of a mutation on the interaction | Substance |
| --- | --- |
| with no effect | Calcineurin-binding protein cabin-1 (Homo sapiens), Q9Y6J0 Q2170W |
| disrupting interaction strength | Calcineurin-binding protein cabin-1 (Homo sapiens), Q9Y6J0 L2172A |
| with no effect | Calcineurin-binding protein cabin-1 (Homo sapiens), Q9Y6J0 Q2170A |

Continued, substance first:

| Substance | effect of a mutation on the interaction |
| --- | --- |
| Calcineurin-binding protein cabin-1 (Homo sapiens), Q9Y6J0 L2172K | disrupting interaction strength |
| Calcineurin-binding protein cabin-1 (Homo sapiens), Q9Y6J0 L2172W | disrupting interaction strength |
| Calcineurin-binding protein cabin-1 (Homo sapiens), Q9Y6J0 I2176A | decreasing interaction strength |
